Data reported in paper PMC9968290.

Experiments:
[1] = molecular target: C-terminally truncated zebrafish ortholog of the TREK1 channel (drTREK1), residues 1-322, N95Q, N122Q (D. rerio (zebrafish)); test: native MS; TREK1 in 200 mM ammonium acetate pH 8, 0.25 mM DDM, without lipid or with 0.1 mg/ml POPA or 0.025 mg/ml POPE; static nanospray on a Q-Exactive EMR
[2] = molecular target: C-terminally truncated zebrafish ortholog of the TREK1 channel (drTREK1), residues 1-322, N95Q, N122Q (D. rerio (zebrafish)); test: cryo-EM structure; single particle cryo-EM of purified TREK1 at 3 mg/ml in DDM micelles (150 mM KCl, 20 mM Tris pH 8.0), without lipid or with POPA or POPE mixed micelles

stoichiometry N [1]: 2
stoichiometry N [2]: 2
Substance: C-terminally truncated zebrafish ortholog of the TREK1 channel (drTREK1), residues 1-322, N95Q, N122Q (natural protein)
